The values below are quoted from earlier work in article PMC10357296.

In this series the target is IL-18 (Homo sapiens) (UniProt Q14116).

pKd: −log10 of the molar value. A value given as a limit tells only on which side of the number the result lay.

IL-18 (Homo sapiens), sequence (Q14116 37-193): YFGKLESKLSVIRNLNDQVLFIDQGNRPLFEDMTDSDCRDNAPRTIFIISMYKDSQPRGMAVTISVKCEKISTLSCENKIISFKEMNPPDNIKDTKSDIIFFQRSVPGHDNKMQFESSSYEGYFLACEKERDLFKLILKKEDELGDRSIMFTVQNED
IL-18BP, sequence (O95998 31-194): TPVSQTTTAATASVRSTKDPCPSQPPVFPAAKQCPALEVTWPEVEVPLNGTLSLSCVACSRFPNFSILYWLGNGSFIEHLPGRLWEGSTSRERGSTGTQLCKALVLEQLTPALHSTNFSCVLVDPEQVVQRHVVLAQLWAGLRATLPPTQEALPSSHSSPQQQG

In general, pKd refers to the negative decadic logarithm of the Kd, by convention in mol/L. With IL-18BP (from UniProt O95998), the negative-log Kd (pKd) is > 9.00.
